Source: patent US20140371142A1 (Johns Hopkins, published 2014)

B1: FLAG epitope-tagged mouse myonectin (CTRP15) (ligand)
chain: LGVPESAEPVGTHARPQPPGAELPAPPANSPPEPTIAHAHSVDPRDAWMLFVKQSDKGINSKRRSKARRLKLGLPGPPGPPGPQGPPGPFIPSEVLLKEFQLLLKGAVRQRESHLEHCTRDLTTPASGSPSRVPAAQELDSQDPGALLALLAATLAQGPRAPRVEAAFHCRLRRDVQVDRRALHELGIYYLPEVEGAFHRGPGLNLTSGQYTAPVAGFYALAATLHVALTEQPRKGPTRPRDRLRLLICIQSLCQHNASLETVMGLENSSELFTISVNGVLYLQAGHYTSVFLDNASGSSLTVRSGSHFSAILLGLDYKDDDDK
modifications: N-linked glycans (sites not given)
notes: Secreted into the supernatant of transfected HEK 293T cells; Disulfide-linked dimer on a non-reducing gel and multimeric on a native gel; also called FLAG-tagged myonectin; recombinant myonectin

Columns and labels:
[1] = biological target: B1; experiment: co-expression in HEK 293T cells, immunoprecipitation then immunoblot of supernatants (FLAG / HA tags)
[2] = biological target: the molecule itself; experiment: native gel immunoblot, FIG. 4 legend (self-association)
Experimental: Native gel electrophoresis. Non-denaturing, non-reducing gel electrophoresis was carried out as previously described (PLoS One, 5: e12765).
Myonectin (CTRP15) protein forms disulfide-linked oligomers and heteromeric complexes with other CTRPs. Consistent with the presence of a signal peptide, myonectin was robustly secreted into the conditioned medium when expressed in vitro (FIG. 4A). Secreted myonectin contains N-linked glycans; treatment with PNGase F (an N-glycosidase) reduced the apparent molecular weight of myonectin on immunoblot (FIG. 4B), confirming that one or more of the conserved Asn residues are glycosylated. In the absence of reducing agent (β-ME), myonectin migrated as a dimer on immunoblot (FIG. 4C), indicating the presence of intermolecular disulfide bond. […] Formation of oligomers is a biochemical feature shared by all CTRPs and proteins of the C1q family. […] Similarly, when co-expressed in mammalian cells (HEK 293T), myonectin formed heteromeric complexes with CTRP2 and CTRP12, and, to a lesser extent, with CTRP5 and CTRP10 (FIG. 4E).

binding result [1]	Binder	binding result [2]
binds	HA epitope-tagged CTRP10 (other, mouse, Co-expressed with FLAG-tagged myonectin in HEK 293T cells; supernatants were used for immunoprecipitation) HYEMLGTCRMICDPYSVAPAGGPAGAKAPPPGPSTAALEVMQDLSANPPPPFIQGPKGDPGRPGKPGPRGPPGEPGPPGPRGPPGEKGDSGRPGLPGLQLTTSAAGGVGVVSGGTGGGGDTEGEVTSALSAAFSGPKIAFYVGLKSPHEGYEVLKFDDVVTNLGNHYDPTTGKFSCQVRGIYFFTYHILMRGGDGTSMWADLCKNGQVRASAIAQDADQNYDYASNSVVLHLDSGDEVYVKLDGGKAHGGNNNKYSTFSGFLLYPDYPYDVPDYA	–
binds	HA epitope-tagged CTRP5 (other, mouse, Co-expressed with FLAG-tagged myonectin in HEK 293T cells; supernatants were used for immunoprecipitation) SPPLDDNKIPSLCPGQPGLPGTPGHHGSQGLPGRDGRDGRDGAPGAPGEKGEGGRPGLPGPRGEPGPRGEAGPMGAIGPAGECSVPPRSAFSAKRSESRVPPPADTPLPFDRVLLNEQGHYDPTTGKFTCQVPGVYYFAVHATVYRASLQFDLVKNGQSIASFFQYFGGWPKPASLSGGAMVRLEPEDQVWVQVGVGDYIGIYASIKTDSTFSGFLVYSDWHSSPVFAYPYDVPDYA	–
–	B1	binds
binds	HA epitope-tagged CTRP2 (other, mouse, Co-expressed with FLAG-tagged myonectin in HEK 293T cells; supernatants were used for immunoprecipitation) DPMLGAFARRDFQKGGPQLVCSLPGPQGPPGPPGAPGSSGVVGRMGFPGKDGQDGQDGDRGDSGEEGPPGRTGNRGKQGPKGKAGAIGRAGPRGPKGVSGTPGKHGTPGKKGPKGKKGEPGLPGPCSCGSSRAKSAFSVAVTKSYPRERLPIKFDKILMNEGGHYNASSGKFVCSVPGIYYFTYDITLANKHLAIGLVHNGQYRIRTFDANTGNHDVASGSTILALKEGDEVWLQIFYSEQNGLFYDPYWTDSLFTGFLIYADQGDPNEVYPYDVPDYA	–
